± gives the standard deviation of the averaged measurements.
Tested on: ATP
Assay: switch fluorescence ratio, 500 uM ATP over buffer (Cy3 cluster intensity, sum of 5 cycles each) (fold (ratio)); higher = stronger signal-on switching upon ATP binding; sequences stand for … in TCGTCGGCAGCGTCAGATGTGTATAAGAGACAGTTTTTTTTTTTTTTTTTTTTTTTTT…TC
Conditions: aptamer strand: ATP DNA aptamer (quencher-CACCTGGGGGAGTATTGCGGAGGAAGG + anchor), 100 nM annealed; ATP concentration: 500 uM
Summary of the method: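 The quencher-labelled ATP aptamer, at 100 nM, was annealed to Cy3-labelled switching-strand clusters on a modified Illumina MiSeq flow-cell. The clusters were imaged in selection buffer, then after 15 min with 500 uM ATP at 22 °C, and this buffer/ATP cycle ran five times with NaOH stripping and re-annealing between runs. Per-cluster fluorescence ratios, summed target-cycle over summed buffer-cycle Cy3 intensity, were averaged per switch-domain sequence. Clusters outside 100-1000 RFU were excluded.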
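Note: ATP exposure 15 min at 22 °C before imaging.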

| Sequence | switch fluorescence ratio |
| --- | --- |
| TCTTTGATCT | 1.02 ± 0.054 |
| TCTTTGATTA | 1.01 ± 0.042 |
| TCTTTGCGCG | 1.02 ± 0.019 |
| TCTTTGGACT | 1.002 ± 0.0032 |
| TCTTTGGGGG | 1 ± 0.053 |
| TCTTTGGTCG | 1.02 ± 0.12 |
| TCTTTGTTGA | 0.995 ± 0.032 |
| TCTTTGTTGT | 1.01 ± 0.019 |
| TCTTTTGCAT | 1.06 ± 0.019 |
| TCTTTTGTG | 1.13 ± 0.2 |
| TCTTTTTAGT | 1 ± 0.029 |
| TGAAAAAAGG | 0.966 ± 0.03 |
| TGAAAAATGT | 0.984 ± 0.016 |
| TGAAAAGCGC | 1.01 ± 0.024 |
| TGAAAAGGGG | 0.998 ± 0.052 |
| TGAAAAGGTT | 0.983 ± 0.023 |
| TGAAACCCTA | 1.03 ± 0.016 |
| TGAAAGATCG | 1.02 ± 0.04 |
| TGAAAGGAAT | 1.13 ± 0.19 |
| TGAAAGGCTC | 1.1 ± 0.14 |
| TGAAAGGCTT | 1.06 ± 0.074 |
| TGAAAGGGAA | 0.9898 ± 0.0074 |
| TGAAAGTCTC | 1.003 ± 0.0057 |
| TGAAAGTTGT | 1.02 ± 0.029 |
| TGAAAGTTTG | 1.01 ± 0.026 |
| TGAAATAAG | 0.979 ± 0.026 |

| Sequence | switch fluorescence ratio |
| --- | --- |
| TGAAATATTG | 0.996 ± 0.022 |
| TGAAATCAGT | 1.01 ± 0.018 |
| TGAAATGGGG | 0.98 ± 0.049 |
| TGAAATTGTG | 1.01 ± 0.022 |
| TGAAATTTAT | 1.01 ± 0.032 |
| TGAACAAGGG | 0.962 ± 0.015 |
| TGAACCAGGG | 1.05 ± 0.018 |
| TGAACCTTCA | 2.71 ± 0.14 |
| TGAACGTTGG | 0.997 ± 0.029 |
| TGAAGAAGTG | 0.994 ± 0.022 |
| TGAAGCTTGG | 1.026 ± 0.0073 |
| TGAAGCTTGT | 1.004 ± 0.003 |
| TGAAGGAGGT | 1 ± 0.015 |
| TGAAGGGGAC | 0.998 ± 0.015 |
| TGAAGGGGTA | 1.01 ± 0.059 |
| TGAAGGGGTG | 0.989 ± 0.026 |
| TGAAGGGTAT | 1.02 ± 0.033 |
| TGAAGGTAAA | 1.02 ± 0.042 |
| TGAAGTAAGG | 1.03 ± 0.029 |
| TGAAGTATAG | 0.9901 ± 0.005 |
| TGAAGTCGAC | 1 ± 0.068 |
| TGAAGTCGCT | 1.02 ± 0.0048 |
| TGAAGTCTGC | 0.968 ± 0.036 |
| TGAAGTGTTT | 1.01 ± 0.028 |
| TGAAGTTAGC | 0.977 ± 0.011 |
| TGAAGTTAGG | 1.01 ± 0.021 |

| Sequence | switch fluorescence ratio |
| --- | --- |
| TGAAGTTCGG | 1.06 ± 0.025 |
| TGAAGTTGTA | 0.965 ± 0.035 |
| TGAATAGAGG | 1.012 ± 0.0024 |
| TGAATAGGGT | 1.03 ± 0.073 |
| TGAATATATT | 1.01 ± 0.022 |
| TGAATATCTT | 1.01 ± 0.026 |
| TGAATATGCG | 0.988 ± 0.0096 |
| TGAATATTTT | 0.9787 ± 0.0076 |
| TGAATCCATT | 1 ± 0.036 |
| TGAATCCGGG | 1 ± 0.038 |
| TGAATCGTTT | 0.937 ± 0.043 |
| TGAATGGGTA | 0.983 ± 0.019 |
| TGAATGTATT | 1.03 ± 0.045 |
| TGAATTCCAT | 0.983 ± 0.023 |
| TGAATTGGGA | 1.02 ± 0.07 |
| TGAATTTCGA | 0.953 ± 0.025 |
| TGACACAGTA | 1.26 ± 0.21 |
| TGACACATAC | 2.24 ± 0.033 |
| TGACAGACAT | 1.1 ± 0.027 |
| TGACAGGCGG | 0.963 ± 0.011 |
| TGACAGTCGT | 0.977 ± 0.024 |
| TGACATCATT | 1.063 ± 0.002 |
| TGACATTGTA | 1.01 ± 0.072 |
| TGACGACGAG | 0.992 ± 0.052 |
| TGACGACTGT | 1 ± 0.021 |
| TGACGCAAGG | 2.8 ± 0.093 |

| Sequence | switch fluorescence ratio |
| --- | --- |
| TGACGCGGGG | 1.054 ± 0.0086 |
| TGACGCGTCA | 1.01 ± 0.013 |
| TGACGGAAGG | 1 ± 0.032 |
| TGACGGGGGC | 1.01 ± 0.014 |
| TGACGTAGTG | 0.991 ± 0.028 |
| TGACGTCGTA | 0.9689 ± 0.0094 |
| TGACGTGTTG | 1.02 ± 0.083 |
| TGACGTTAAA | 1.04 ± 0.067 |
| TGACGTTCGG | 0.978 ± 0.029 |
| TGACGTTGAG | 0.9868 ± 0.0056 |
| TGACGTTTGC | 1.03 ± 0.12 |
| TGACTAGTTT | 1.005 ± 0.0059 |
| TGACTCGGTG | 0.984 ± 0.015 |
| TGACTTAGTT | 0.999 ± 0.051 |
| TGACTTGCGT | 0.971 ± 0.042 |
| TGAGAACGCA | 1.2 ± 0.054 |
| TGAGAAGCAA | 1.34 ± 0.056 |
| TGAGAATTTT | 0.996 ± 0.032 |
| TGAGACAAGC | 1.05 ± 0.012 |
| TGAGAGGAGG | 1 ± 0.028 |
| TGAGAGGGGC | 0.973 ± 0.058 |
| TGAGAGGTTT | 0.9817 ± 0.0014 |
| TGAGATGAAG | 1.005 ± 0.0085 |
| TGAGATTGC | 1.03 ± 0.053 |
| TGAGCAGGTT | 1.017 ± 0.0094 |
| TGAGCATGCT | 1 ± 0.021 |

| Sequence | switch fluorescence ratio |
| --- | --- |
| TGAGCGAAGG | 0.9807 ± 0.0057 |
| TGAGCGGAGG | 1.01 ± 0.002 |
| TGAGCGGATG | 0.994 ± 0.036 |
| TGAGCGGGAG | 1.0564 ± 0.00029 |
| TGAGCGGGGG | 0.996 ± 0.021 |
| TGAGCTAAAT | 1.18 ± 0.31 |
| TGAGCTATAT | 1.42 ± 0.077 |
| TGAGCTCACG | 1.02 ± 0.027 |
| TGAGCTTGGG | 0.99 ± 0.022 |
| TGAGGAATGG | 0.9987 ± 0.0036 |
| TGAGGATACA | 1.016 ± 0.0029 |
| TGAGGATATA | 0.9887 ± 0.0059 |
| TGAGGATGGG | 0.975 ± 0.026 |
| TGAGGCCCCG | 0.991 ± 0.025 |
| TGAGGCTATG | 1 ± 0.021 |
| TGAGGCTGGG | 1.02 ± 0.054 |
| TGAGGGATGA | 1.028 ± 0.0075 |
| TGAGGGCAGC | 0.993 ± 0.026 |
| TGAGGGCGAT | 1.033 ± 0.0019 |
| TGAGGGGAGA | 1.02 ± 0.028 |
| TGAGGGGAGG | 1.13 ± 0.15 |
| TGAGGGGATG | 0.994 ± 0.023 |
| TGAGGGGGG | 1.01 ± 0.022 |
| TGAGGTAAGG | 0.997 ± 0.033 |
| TGAGGTACTA | 0.999 ± 0.053 |
| TGAGGTAGGG | 0.976 ± 0.053 |

| Sequence | switch fluorescence ratio |
| --- | --- |
| TGAGGTTAGA | 1.03 ± 0.029 |
| TGAGTAACGG | 1.02 ± 0.04 |
| TGAGTAAGGA | 1.03 ± 0.034 |
| TGAGTAAGGT | 0.995 ± 0.04 |
| TGAGTAATAG | 2.01 ± 0.87 |
| TGAGTAGCGT | 0.9631 ± 0.0063 |
| TGAGTCGGGA | 1.01 ± 0.014 |
| TGAGTCGTTG | 0.972 ± 0.01 |
| TGAGTGCTCT | 0.9733 ± 0.0062 |
| TGAGTGCTGC | 1.08 ± 0.075 |
| TGAGTGCTGG | 0.9741 ± 0.0017 |
| TGAGTGGACC | 0.992 ± 0.047 |
| TGAGTGGGTC | 1.03 ± 0.013 |
| TGAGTGTAGA | 1.07 ± 0.023 |
| TGAGTTTCGG | 0.9869 ± 0.0098 |
| TGATAAATTT | 1.01 ± 0.023 |
| TGATAAGGGG | 1.01 ± 0.039 |
| TGATACGCTA | 1.28 ± 0.23 |
| TGATACGGGG | 1.01 ± 0.026 |
| TGATAGAAGT | 1.01 ± 0.015 |
| TGATAGAGTG | 1.01 ± 0.074 |
| TGATAGCGGA | 1.03 ± 0.035 |
| TGATAGGAAG | 1 ± 0.019 |

— the supplement of paper PMC10126150
